Experimental data published in article PMC8357417, “CTP and parS coordinate ParB partition complex dynamics and ParA-ATPase activation for ParABS-mediated DNA partitioning” (eLife, 2021).

Assays:
[1] = molecular target: T1, ParAF (F-plasmid (E. coli)) (UniProt P62556)
T1 sequence: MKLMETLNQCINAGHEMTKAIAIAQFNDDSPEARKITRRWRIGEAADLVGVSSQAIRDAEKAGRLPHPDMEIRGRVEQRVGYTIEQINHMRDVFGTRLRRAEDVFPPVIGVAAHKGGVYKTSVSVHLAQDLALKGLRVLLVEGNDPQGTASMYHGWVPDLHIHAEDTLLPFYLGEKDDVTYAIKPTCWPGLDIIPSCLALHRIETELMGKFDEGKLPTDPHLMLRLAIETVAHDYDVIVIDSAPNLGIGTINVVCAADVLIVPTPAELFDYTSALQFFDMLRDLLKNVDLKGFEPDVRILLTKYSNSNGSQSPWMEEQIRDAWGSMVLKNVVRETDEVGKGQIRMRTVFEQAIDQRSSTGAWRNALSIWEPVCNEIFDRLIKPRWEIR

[2] = molecular target: T1, ParAF (F-plasmid (E. coli)); remark: listed apart in the source
EcoRI (Escherichia coli) = EcoRI (Escherichia coli) (UniProt P00642); details: cited from earlier work
[3] = substrate: Nc1ccn([C@@H]2O[C@H](COP(=O)(O)OP(=O)(O)OP(=O)(O)O)[C@@H](O)[C@H]2O)c(=O)n1; assay: phosphate release, MESG/purine nucleoside phosphorylase (EnzChek), initial rates; format: biochemical, Escherichia coli; details: no parSF DNA, 0.84 μM ParBF, 2 mM MgCl2, 100 mM NaCl, pH 7.5
ParAF-eGFP [4] = molecular target: T2, ParAF-eGFP (F-plasmid (E. coli), UniProt P62556 1-388); assay: TIRF microscopy of fluorescent proteins on an nsDNA carpet; as a6, with CDP instead of CTP, with the 24 bp parSF fragment (1.1 uM); apparent rate constants; details: both partners purified
T2 construct: ParA ATPase of the F plasmid (ParAF, also called SopA); SGGG linker between ParAF and eGFP; concentrations and ratios are per monomer; also called SopA; source: E. coli BL21 DE3 AI, purified (HisTrap, Mono Q, S200 size exclusion)
T2 sequence (looked up): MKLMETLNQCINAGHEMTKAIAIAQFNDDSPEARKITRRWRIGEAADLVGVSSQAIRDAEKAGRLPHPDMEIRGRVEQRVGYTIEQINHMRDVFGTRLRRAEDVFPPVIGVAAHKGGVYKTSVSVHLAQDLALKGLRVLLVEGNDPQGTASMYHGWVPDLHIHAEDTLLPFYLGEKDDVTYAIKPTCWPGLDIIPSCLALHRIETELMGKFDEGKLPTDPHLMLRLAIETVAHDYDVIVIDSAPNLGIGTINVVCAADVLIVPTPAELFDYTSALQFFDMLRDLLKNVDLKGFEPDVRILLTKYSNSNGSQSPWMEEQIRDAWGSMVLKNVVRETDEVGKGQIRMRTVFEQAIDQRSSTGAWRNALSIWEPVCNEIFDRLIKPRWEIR

[5] = molecular target: the molecule itself; assay: FRET or BRET; ParBF labelled with Alexa 488 or Alexa 594 mixed at equal concentrations, FRET efficiency in a plate reader; monomer to dimer; apparent KD
ParAF-eGFP [6] = molecular target: T2, ParAF-eGFP; assay: TIRF microscopy of fluorescent proteins on an nsDNA carpet; ParAF-eGFP (1 uM) and labelled ParBF variant (2 uM, or 10 uM for the 1-42-mCherry fusions) preincubated 10 min at room temperature with 1 mM ATPgammaS, infused over an nsDNA carpet, then washed with buffer containing ATPgammaS; no parSF, no C-nucleotide; 300 mM K-glutamate TIRFM buffer pH 7.5; apparent rate constants; details: both partners purified
ParAF-eGFP [7] = molecular target: T2, ParAF-eGFP; assay: TIRF microscopy of fluorescent proteins on an nsDNA carpet; as a1, with ATPgammaS (1 mM) and CTP (2 mM), no parSF; wash with ATPgammaS and CTP; apparent rate constants; details: both partners purified
ParAF-eGFP [8] = molecular target: T2, ParAF-eGFP; assay: TIRF microscopy of fluorescent proteins on an nsDNA carpet; as a5, with CTP (2 mM) and the 24 bp parSF fragment (1.1 uM); apparent rate constants; details: both partners purified
ParAF-eGFP [9] = molecular target: T2, ParAF-eGFP; assay: TIRF microscopy of fluorescent proteins on an nsDNA carpet; as a1, with the 24 bp parSF DNA fragment (1.1 uM) in the sample; apparent rate constants; details: both partners purified
ParAF-eGFP [10] = molecular target: T2, ParAF-eGFP; assay: TIRF microscopy of fluorescent proteins on an nsDNA carpet; as a1, but the wash buffer contained ATPgammaS and 10 uM ParBF^1-42-mCherry or ParBF^(1-42 R36A)-mCherry; apparent rate constants; details: both partners purified
ParAF-eGFP [11] = molecular target: T2, ParAF-eGFP; assay: TIRF microscopy of fluorescent proteins on an nsDNA carpet; ParAF-eGFP (1 uM) and labelled ParBF variant (2 uM, or 10 uM for the 1-42-mCherry fusions) preincubated 10 min at room temperature with 1 mM ATPgammaS, infused over an nsDNA carpet, then washed with buffer containing ATPgammaS; no parSF, no C-nucleotide; 300 mM K-glutamate TIRFM buffer pH 7.5; apparent rate constants; details: both partners purified; remark: listed apart in the source

ParBF^1-42-mCherry-EcoRI^E111Q
ParAF-ATPase stimulation against ParBF^1-42-mCherry-EcoRI^E111Q concentration: KA (apparent total concentration for half-maximum stimulation); pBR322 nsDNA + EcoRI DNA fragment [1]: 0.16 µM | ParAF-ATPase stimulation against ParBF^1-42-mCherry-EcoRI^E111Q concentration: KA (apparent total concentration for half-maximum stimulation); pBR322 nsDNA + Scram DNA [1]: 0.16 µM | ParAF-ATPase stimulation against ParBF^1-42-mCherry-EcoRI^E111Q concentration: K (half) [2]: 0.15 µM

EcoRI (from UniProt P00642)
Kd (EcoRI (Escherichia coli)): < 0.02 nM

B1: ParBF (Escherichia coli K-12) (protein)
chain: MKRAPVIPKHTLNTQPVEDTSLSTPAAPMVDSLIARVGVMARGNAITLPVCGRDVKFTLEVLRGDSVEKTSRVWSGNERDQELLTEDALDDLIPSFLLTGQQTPAFGRRVSGVIEIADGSRRRKAAALTESDYRVLVGELDDEQMAALSRLGNDYRPTSAYERGQRYASRLQNEFAGNISALADAENISRKIITRCINTAKLPKSVVALFSHPGELSARSGDALQKAFTDKEELLKQQASNLHEQKKAGVIFEAEEVITLLTSVLKTSSASRTSLSSRHQFAPGATVLYKGDKMVLNLDRSRVPTECIEKIEAILKELEKPAP
notes: full-length, C-terminal hexa-histidine tag kept, expressed in E. coli BL21 DE3 AI (plasmid pX8); dimer
Km [3]: ~8 µM | kcat [3]: ~0.00389 s⁻¹

B2: ParBF (full-length), ParBF-Alexa647 (natural protein, F-plasmid (E. coli), UniProt P62558 1-323, looked up)
chain: MKRAPVIPKHTLNTQPVEDTSLSTPAAPMVDSLIARVGVMARGNAITLPVCGRDVKFTLEVLRGDSVEKTSRVWSGNERDQELLTEDALDDLIPSFLLTGQQTPAFGRRVSGVIEIADGSRRRKAAALTESDYRVLVGELDDEQMAALSRLGNDYRPTSAYERGQRYASRLQNEFAGNISALADAENISRKIITRCINTAKLPKSVVALFSHPGELSARSGDALQKAFTDKEELLKQQASNLHEQKKAGVIFEAEEVITLLTSVLKTSSASRTSLSSRHQFAPGATVLYKGDKMVLNLDRSRVPTECIEKIEAILKELEKPAP
modifications: Alexa Fluor 647 C2 maleimide label (DNA-carpet TIRFM assays); Alexa 488 or Alexa 594 label (FRET dimerisation assay)
notes: ParB of the F plasmid (ParBF, also called SopB); One molecule for the same construct with different dyes; ATPase and magnetic-tweezers results are printed for 'ParBF' without a dye; concentrations and ratios are per monomer; also called Alexa647-ParBF; WT ParBF; source: E. coli BL21 DE3 AI, purified (HisTrap, Mono S, S200 size exclusion)
apparent koff of the ParAF-ParBF complex from the nsDNA carpet (ParBF signal), with CDP and parSF (ParAF-eGFP [4]): 0.00883 s⁻¹ | stoichiometry N (ParAF-eGFP [4]): 2.53 ParBF per ParAF (A:B ratio, monomers) | Kd [5]: ~18.5 nM | apparent koff of the ParAF-ParBF complex from the nsDNA carpet (ParBF signal) (ParAF-eGFP [6]): 0.0148 s⁻¹ | stoichiometry N (ParAF-eGFP [6]): 1.1 ParBF per ParAF (A:B ratio, monomers) | apparent koff of the ParAF-ParBF complex from the nsDNA carpet (ParBF signal), with CTP (ParAF-eGFP [7]): 0.0108 s⁻¹ | stoichiometry N (ParAF-eGFP [7]): 2.16 ParBF per ParAF (A:B ratio, monomers) | apparent koff of the ParAF-ParBF complex from the nsDNA carpet (ParBF signal), with CTP and parSF (ParAF-eGFP [8]): 0.0138 s⁻¹ | stoichiometry N (ParAF-eGFP [8]): 2.16 ParBF per ParAF (A:B ratio, monomers) | apparent koff of the ParAF-ParBF complex from the nsDNA carpet (ParBF signal), with parSF (ParAF-eGFP [9]): 0.0137 s⁻¹ | stoichiometry N (ParAF-eGFP [9]): 2.17 ParBF per ParAF (A:B ratio, monomers)

B3: ParBF^R121A (natural protein, F-plasmid (E. coli), UniProt P62558 1-323, looked up)
chain: MKRAPVIPKHTLNTQPVEDTSLSTPAAPMVDSLIARVGVMARGNAITLPVCGRDVKFTLEVLRGDSVEKTSRVWSGNERDQELLTEDALDDLIPSFLLTGQQTPAFGRRVSGVIEIADGSARRKAAALTESDYRVLVGELDDEQMAALSRLGNDYRPTSAYERGQRYASRLQNEFAGNISALADAENISRKIITRCINTAKLPKSVVALFSHPGELSARSGDALQKAFTDKEELLKQQASNLHEQKKAGVIFEAEEVITLLTSVLKTSSASRTSLSSRHQFAPGATVLYKGDKMVLNLDRSRVPTECIEKIEAILKELEKPAP
modifications: Alexa Fluor 647 C2 maleimide label (fluorescently labeled ParBF^R121A)
notes: ParB of the F plasmid (ParBF, SopB) with R121A in the Box II region of the CTPase domain; ATPase results are printed without a dye; also called Box II mutant ParBF^R121A; source: E. coli BL21 DE3 AI, purified (HisTrap, Mono S, S200 size exclusion)
apparent koff of the ParAF-ParBF^R121A complex from the nsDNA carpet (ParBF signal) (ParAF-eGFP [6]): 0.013 s⁻¹ | stoichiometry N (ParAF-eGFP [6]): 0.99 ParBF per ParAF (A:B ratio, monomers) | apparent koff of the ParAF-ParBF^R121A complex from the nsDNA carpet (ParBF signal), with parSF (ParAF-eGFP [9]): 0.013 s⁻¹ | stoichiometry N (ParAF-eGFP [9]): 1.12 ParBF per ParAF (A:B ratio, monomers)

B4: ParBF^1-42-mCherry (domain or fragment, F-plasmid (E. coli))
chain: MKRAPVIPKHTLNTQPVEDTSLSTPAAPMVDSLIARVGVMAR
notes: ParBF^1-42 fused to the N-terminus of mCherry through an SGGG linker; His6 at the C-terminus of the fusion; Monomer by gel filtration; also called monomeric ParBF^1-42-mCherry; source: E. coli BL21 DE3 AI, purified (HisTrap after lysis in 6 M guanidinium chloride, S200 size exclusion); not shown: mCherry, C-terminal, kept
koff (ParAF-eGFP [6]): 0.105 s⁻¹ | stoichiometry N (ParAF-eGFP [6]): 1.27 ParBF per ParAF (A:B ratio, monomers) | ParAF-ATPase stimulation against ParBF^1-42 concentration: KA (apparent total concentration for half-maximum stimulation); pBR322 nsDNA [1]: 1.2 µM | apparent koff from the nsDNA carpet together with ParAF, ParBF^1-42-mCherry in the wash (ParBF signal) (ParAF-eGFP [10]): 0.0148 s⁻¹

B5: ParBF^(1-42 R36A)-mCherry (domain or fragment, F-plasmid (E. coli))
chain: MKRAPVIPKHTLNTQPVEDTSLSTPAAPMVDSLIAAVGVMAR
notes: SGGG linker between ParBF^(1-42 R36A) and mCherry; His6 at the C-terminus of the fusion; source: E. coli BL21 DE3 AI, purified (HisTrap after lysis in 6 M guanidinium chloride, S200 size exclusion); not shown: mCherry, C-terminal, kept
koff (ParAF-eGFP [6]): 0.867 s⁻¹ | ParAF-ATPase stimulation against ParBF^(1-42 R36A) concentration: KA (apparent total concentration for half-maximum stimulation); pBR322 nsDNA [1]: 108 µM | apparent koff from the nsDNA carpet together with ParAF, ParBF^(1-42 R36A)-mCherry in the wash (ParBF signal) (ParAF-eGFP [10]): 0.03 s⁻¹ | stoichiometry N (ParAF-eGFP [10]): 0.92 ParBF per ParAF (A:B ratio, monomers) | steady-state density on the DNA carpet relative to ParBF^1-42-mCherry (ParAF-eGFP [11]): < 10%
